Laboratory results published in PMC7840946 (2021).
Changes are numbered by the printed parent chain. Where two headings read alike, the source gives them in different places.

B1: p4-36gl, predicted germline version of mAb p4-36 (antibody, V domains shown)
VH: EVQLVESGGGLVQPGRSLRLSCTASGFTFGDYAMSWVRQAPGKGLEWVGFIRSKAYGGTTEYAASVKGRFTISRDDSKSIAYLQMNSLKTEDTAVYYCTGPRPYYDSSGYYPYYFDYWGQGTLVTVSS
VL: QSALTQPRSVSGSPGQSVTISCTGTSSDVGGYNYVSWYQQHPGKAPKLMIYDVSKRPSGVPDRFSGSKSGNTASLTISGLQAEDEADYYCCSYAGSYTYVVFGGGTKLTVL
B2: mAb p4-163 (human IgG1) (antibody, V domains shown)
VH: EVQLVESGGGLVKPGGSLRLSCAASGFTFESHRMHWVRQAPGKGLEWVSSIISSRTYIYYADSVKGRFTISRDNSRNSLFLQMNSLRAEDTAVYYCARGDYYYDGVASDPHFDNWGQGTLVTVSS
VL: QSVLTQPPSASGTPGQRVTISCSGGRSNIGSNYVYWFQQLPGTAPQLLIYRNIQRPSGVPARFSGSKSGTSASLAISGLRSEDEADYYCATWDDSLSGVVFGGGTKVTVL
B3: mAb p4-170 (human IgG1) (antibody, V domains shown)
VH: B2 VH with E30S, R76G, A88V
VL: B2 VL with P7T, G25S, L40F, T43A, G69D, D86H, T91A

Assays:
[1] = target: T1, PstS1 (Rv0934), recombinant, wild type (Mycobacterium tuberculosis, UniProt P9WGU1); assay: SPR
T1 sequence (P9WGU1 25-374): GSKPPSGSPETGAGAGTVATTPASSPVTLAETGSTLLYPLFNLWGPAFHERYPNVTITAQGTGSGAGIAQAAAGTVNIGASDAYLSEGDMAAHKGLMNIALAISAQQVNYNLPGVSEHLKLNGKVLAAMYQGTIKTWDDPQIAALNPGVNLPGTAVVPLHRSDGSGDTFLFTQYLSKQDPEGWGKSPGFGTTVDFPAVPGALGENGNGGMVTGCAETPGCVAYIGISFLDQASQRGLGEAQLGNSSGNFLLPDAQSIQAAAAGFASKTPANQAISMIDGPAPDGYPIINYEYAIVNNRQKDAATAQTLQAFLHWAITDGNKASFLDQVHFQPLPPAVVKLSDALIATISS

[2] = target: T1, PstS1 (Rv0934), recombinant, wild type; assay: SPR; remark: listed apart in the source

Binder | Kd [1] [nM] | Kd [2] [nM]
B1 | 6.85 | –
B2 | – | 4.45
B3 | – | 1.34
